Assay results taken from paper PMC6699109, “A GH51 α-L-arabinofuranosidase from Talaromyces leycettanus strain JCM12802 that selectively drives synergistic lignocellulose hydrolysis” (Microbial Cell Factories, 2019).

Substrate: O=[N+]([O-])c1ccc(O[C@@H]2O[C@@H](CO)[C@H](O)[C@H]2O)cc1
Assay: purified protein
Format: biochemical, Evansstolkia leycettana
Conditions: 0.1 M McIlvaine buffer pH 3.5, 55 °C, 5 min, 0.1–5 mM substrate

B1: TlAbf51 (Evansstolkia leycettana) (protein)
chain: MKTLPALAGGLAVAVTYLSGLAFAIDLTVSKTGGNASSPLLYGIMFEDINNSGDGGIHGQLLKNNGFQGNNPGLTAYAAVGNVTLSQDTSNPLSSAITSSLKVSVPPGTTGYVGFANTGYAGVPVVATTYANYFWMKGKYSGTINLRLVGTSSGIVYASHNITVHSTDSQFTYYDTSFTSSASPDGNNEWQLLFDGSQVAGSSLNFGLVQLFPPTYHSRYNGLRNDVASFLEEIKPSFLRFPGGNNLEGASPADRWKWNATIGPVVDRPGRQGDWGYPNTDALGLDEYLYWCEDMGMEPVLAVWSGLSLGGGIVSGSALDPYVDDIMNELEYLLGDMSTAGGRLRAQNGRTEPWPIKHVEVGNEDNLSSGCGTYASRFTQIYNAIHAAYPDITVIASTTDASCLPSSILEGVITDIHHYLNPDQFVALFNEWDNWPRTHPIFVGEYASTHNSDGSQTYWTRMRGSCGEAVYMIGMERNSDIVKMASYAPLLEHFNLAEWSPDLFGLDSSPDSITGSTSYYVQKMFSTNRGSTILPVTSDAGFGPVYWVASVSGSTYYVKLANYGSASETVTINIDGTKSGTLEMLSGAEMGSNYPHNVTITPQTSSVSGSGSFTVTMPAWAVAVLAVS
notes: secreted from Pichia pastoris GS115 (pPIC9, EcoRI/NotI), purified
Q: Which results are given for B1?
A: Km: 280 ± 10 µM; kcat: 1600 s⁻¹
